The values below come from US20100081620A1.

Usually Ki stands for the equilibrium dissociation constant of an inhibitor or competing ligand from its target.

For one assay, the target named is ADAM 10 on IMPE cells. Put plainly: cell-based or functional assay.
The target in another assay is MMP 3. In words: enzyme inhibition, fluorescent peptide substrate.
In assay [1] the target is TACE catalytic domain (human) (human) (UniProt P78536). In words: enzyme inhibition, fluorescent peptide substrate.
Sequence of TACE catalytic domain (human) (human) (P78536 215-477 limits assumed): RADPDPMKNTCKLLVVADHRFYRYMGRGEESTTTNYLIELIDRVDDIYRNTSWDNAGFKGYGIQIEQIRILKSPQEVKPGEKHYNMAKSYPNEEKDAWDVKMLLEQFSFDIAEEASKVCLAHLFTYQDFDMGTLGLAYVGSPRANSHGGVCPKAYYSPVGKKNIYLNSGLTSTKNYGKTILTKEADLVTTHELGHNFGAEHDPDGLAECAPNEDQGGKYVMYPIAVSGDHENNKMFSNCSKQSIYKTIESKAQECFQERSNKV
Another assay concerns the target MMP 9. Put plainly: enzyme inhibition, fluorescent peptide substrate.
Assay [2] concerns the target human ADAM 9 catalytic/disintegrin domains (human) (UniProt Q13443). In words: enzyme inhibition, fluorescent peptide substrate.
Assay [3] has as its target Human ADAM10 protease containing the catalytic/disintegrin domains (human) (UniProt O14672). Put plainly: enzyme inhibition, fluorescent peptide substrate.
In a further assay the target is MMP 2. Put plainly: enzyme inhibition, fluorescent peptide substrate.
Sequence of MMP 2 (P08253 110-660): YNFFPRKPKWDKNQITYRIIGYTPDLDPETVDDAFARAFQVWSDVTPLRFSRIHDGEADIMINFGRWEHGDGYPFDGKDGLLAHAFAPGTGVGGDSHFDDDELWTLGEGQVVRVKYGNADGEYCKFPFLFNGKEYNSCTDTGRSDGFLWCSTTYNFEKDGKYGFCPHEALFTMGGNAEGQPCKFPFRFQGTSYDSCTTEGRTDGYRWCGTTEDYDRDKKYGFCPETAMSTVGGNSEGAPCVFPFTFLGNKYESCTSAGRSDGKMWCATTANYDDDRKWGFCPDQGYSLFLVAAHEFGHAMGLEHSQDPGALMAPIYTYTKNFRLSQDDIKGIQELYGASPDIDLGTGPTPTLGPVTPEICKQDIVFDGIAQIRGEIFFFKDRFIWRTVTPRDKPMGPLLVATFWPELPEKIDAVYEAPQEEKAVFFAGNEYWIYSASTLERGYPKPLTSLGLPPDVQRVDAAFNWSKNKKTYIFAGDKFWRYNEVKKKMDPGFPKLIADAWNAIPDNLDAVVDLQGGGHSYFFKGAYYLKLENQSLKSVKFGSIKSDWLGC
Assay [4] addresses Human TACE protease containing the catalytic/disintegrin domains (human) (UniProt P78536). Put plainly: enzyme inhibition, fluorescent peptide substrate.
In a further assay the target is MMP 1. Put plainly: enzyme inhibition, fluorescent peptide substrate.
Sequence of MMP 1 (P03956 100-469): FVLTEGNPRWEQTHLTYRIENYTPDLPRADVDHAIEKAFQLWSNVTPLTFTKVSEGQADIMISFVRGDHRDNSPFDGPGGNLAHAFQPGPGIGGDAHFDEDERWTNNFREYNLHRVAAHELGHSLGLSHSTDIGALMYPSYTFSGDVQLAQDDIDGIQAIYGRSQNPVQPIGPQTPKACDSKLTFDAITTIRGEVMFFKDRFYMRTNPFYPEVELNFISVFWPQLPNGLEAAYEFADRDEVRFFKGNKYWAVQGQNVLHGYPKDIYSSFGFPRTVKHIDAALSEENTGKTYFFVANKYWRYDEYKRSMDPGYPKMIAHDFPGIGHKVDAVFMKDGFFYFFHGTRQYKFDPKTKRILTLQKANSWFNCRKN
The target of another assay is MMP 13. Put plainly: enzyme inhibition, fluorescent peptide substrate.
In another assay the target is MMP 14. In words: enzyme inhibition, fluorescent peptide substrate.
In assay [5] the target is T1, ADAM 8 catalytic domain (mouse) (mouse) (UniProt Q05910).
T1 sequence (looked up): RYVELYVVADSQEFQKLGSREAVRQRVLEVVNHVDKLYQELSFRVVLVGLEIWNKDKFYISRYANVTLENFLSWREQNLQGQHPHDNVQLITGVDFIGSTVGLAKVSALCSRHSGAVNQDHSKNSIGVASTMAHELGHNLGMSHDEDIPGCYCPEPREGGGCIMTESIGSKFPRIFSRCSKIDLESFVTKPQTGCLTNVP
Put plainly: enzyme inhibition, fluorescamine assay with Dnp peptide substrate.

Assay [6] has as its target mouse ADAM 10 catalytic domain (mouse) (UniProt O35598). In words: enzyme inhibition ('unpublished observation').
Assay [7] deals with ADAM 10 protein on Ramos cells, U937 cells and B cells. Put plainly: cell-based or functional assay.
For assay [8], the target named is human ADAM 9 catalytic/disintegrin domains (human) (UniProt Q13443). Put plainly: enzyme inhibition, fluorescent peptide substrate. The source holds these as a separate data set.
Sequence of human ADAM 9 catalytic/disintegrin domains (human) (Q13443 206-697 limits assumed): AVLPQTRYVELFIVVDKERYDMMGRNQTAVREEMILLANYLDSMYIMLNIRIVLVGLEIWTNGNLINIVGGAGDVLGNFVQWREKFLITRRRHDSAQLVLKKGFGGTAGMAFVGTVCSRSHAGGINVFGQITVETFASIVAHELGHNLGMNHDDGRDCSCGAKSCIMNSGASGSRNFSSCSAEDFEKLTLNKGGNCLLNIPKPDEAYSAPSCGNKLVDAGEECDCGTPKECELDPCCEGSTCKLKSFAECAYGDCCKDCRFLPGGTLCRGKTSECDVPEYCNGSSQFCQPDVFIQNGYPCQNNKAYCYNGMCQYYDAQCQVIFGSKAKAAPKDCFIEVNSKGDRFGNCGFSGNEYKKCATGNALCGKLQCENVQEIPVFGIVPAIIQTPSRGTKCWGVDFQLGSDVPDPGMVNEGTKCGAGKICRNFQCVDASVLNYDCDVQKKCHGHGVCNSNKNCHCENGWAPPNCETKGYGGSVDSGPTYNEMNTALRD
The target in assay [9] is Human TACE protease containing the catalytic/disintegrin domains (human) (UniProt P78536). Put plainly: cell-based or functional assay.
Sequence of Human TACE protease containing the catalytic/disintegrin domains (human) (P78536 215-671 limits assumed): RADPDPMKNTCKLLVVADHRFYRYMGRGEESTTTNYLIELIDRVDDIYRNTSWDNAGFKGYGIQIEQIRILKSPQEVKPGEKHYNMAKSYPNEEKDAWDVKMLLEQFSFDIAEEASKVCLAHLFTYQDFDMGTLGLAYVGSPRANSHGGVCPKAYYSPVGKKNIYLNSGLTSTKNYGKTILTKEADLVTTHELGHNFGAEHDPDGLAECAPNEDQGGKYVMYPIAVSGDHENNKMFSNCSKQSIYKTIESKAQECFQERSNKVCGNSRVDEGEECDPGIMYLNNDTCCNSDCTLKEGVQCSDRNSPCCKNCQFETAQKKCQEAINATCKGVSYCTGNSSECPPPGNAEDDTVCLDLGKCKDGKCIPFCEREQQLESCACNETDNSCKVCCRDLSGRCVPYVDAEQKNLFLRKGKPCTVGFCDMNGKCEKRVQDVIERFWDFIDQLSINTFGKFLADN

Where two headings read alike, the source gives them in different places.

Sequence of mouse ADAM 10 catalytic domain (mouse) (O35598 215-457 limits assumed): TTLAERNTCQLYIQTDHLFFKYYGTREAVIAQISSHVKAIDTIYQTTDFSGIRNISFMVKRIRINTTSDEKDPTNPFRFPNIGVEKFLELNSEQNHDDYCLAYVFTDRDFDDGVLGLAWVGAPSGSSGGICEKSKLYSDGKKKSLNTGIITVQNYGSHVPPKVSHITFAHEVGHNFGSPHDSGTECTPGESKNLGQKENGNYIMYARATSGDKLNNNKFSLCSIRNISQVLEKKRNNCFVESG
Sequence of Human ADAM10 protease containing the catalytic/disintegrin domains (human) (O14672 214-672 limits assumed): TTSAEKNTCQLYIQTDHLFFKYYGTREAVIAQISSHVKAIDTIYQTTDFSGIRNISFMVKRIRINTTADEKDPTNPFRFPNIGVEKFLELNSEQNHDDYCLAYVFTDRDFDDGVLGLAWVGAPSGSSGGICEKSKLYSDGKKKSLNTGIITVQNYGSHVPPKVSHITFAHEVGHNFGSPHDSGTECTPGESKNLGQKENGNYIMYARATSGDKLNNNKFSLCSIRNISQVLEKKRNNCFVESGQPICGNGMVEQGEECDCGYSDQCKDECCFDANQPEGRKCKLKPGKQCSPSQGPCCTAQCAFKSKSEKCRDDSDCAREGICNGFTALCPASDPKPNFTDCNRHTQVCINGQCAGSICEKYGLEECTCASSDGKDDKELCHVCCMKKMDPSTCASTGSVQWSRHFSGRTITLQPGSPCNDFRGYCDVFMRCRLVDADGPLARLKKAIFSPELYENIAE
Sequence of MMP 9 (P14780 107-707): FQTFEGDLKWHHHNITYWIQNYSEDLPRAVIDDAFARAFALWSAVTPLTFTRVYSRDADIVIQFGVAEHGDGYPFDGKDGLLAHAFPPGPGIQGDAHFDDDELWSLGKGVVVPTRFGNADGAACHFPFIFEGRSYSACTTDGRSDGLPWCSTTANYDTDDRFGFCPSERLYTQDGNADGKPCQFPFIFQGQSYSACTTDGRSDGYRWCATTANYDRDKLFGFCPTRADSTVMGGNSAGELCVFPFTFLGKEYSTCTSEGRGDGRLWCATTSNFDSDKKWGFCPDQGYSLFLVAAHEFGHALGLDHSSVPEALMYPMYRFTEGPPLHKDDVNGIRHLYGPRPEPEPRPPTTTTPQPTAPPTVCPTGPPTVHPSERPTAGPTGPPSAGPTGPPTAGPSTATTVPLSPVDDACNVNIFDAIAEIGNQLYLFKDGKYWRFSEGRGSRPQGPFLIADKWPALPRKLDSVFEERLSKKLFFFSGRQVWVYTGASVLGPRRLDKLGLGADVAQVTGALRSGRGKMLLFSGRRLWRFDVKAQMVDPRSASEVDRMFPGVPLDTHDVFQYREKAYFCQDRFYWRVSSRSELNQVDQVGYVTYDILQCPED
Sequence of MMP 3 (P08254 100-477): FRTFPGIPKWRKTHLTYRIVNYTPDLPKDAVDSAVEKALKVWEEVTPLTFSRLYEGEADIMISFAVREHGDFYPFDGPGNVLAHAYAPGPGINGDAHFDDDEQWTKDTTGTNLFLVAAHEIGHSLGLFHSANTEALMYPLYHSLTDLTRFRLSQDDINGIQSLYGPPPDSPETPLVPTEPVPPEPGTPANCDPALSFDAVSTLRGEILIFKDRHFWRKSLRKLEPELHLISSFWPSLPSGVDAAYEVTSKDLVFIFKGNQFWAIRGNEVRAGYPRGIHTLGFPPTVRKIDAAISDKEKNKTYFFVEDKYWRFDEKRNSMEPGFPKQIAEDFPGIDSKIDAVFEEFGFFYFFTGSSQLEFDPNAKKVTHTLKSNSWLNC

Take “ADAM10 prodomain (betacellulin shedding assay, construct not specified)”: in the assay with ADAM 10 on IMPE cells, the inhibition of calcium ionophore induced betacellulin shedding (BTC ELISA) was 67 % (at 15 µM), the inhibition of calcium ionophore induced betacellulin shedding (BTC ELISA) (% (at 1.5 µM)) came to 25, the inhibition of constitutive betacellulin shedding (BTC ELISA) is 90 % (at 15 µM) and the inhibition of constitutive betacellulin shedding (BTC ELISA) (% (at 1.5 µM)) turned out to be 75.
“C173S ProADAM 10 23-213 (C-terminal His tag) (from UniProt O35598 23-213)”: the Ki with MMP 3 is more than 2000 nM; in assay [1], more than 3000 nM; in the assay with MMP 9 it was more than 2000 nM; in [2], more than 1000 nM; in [3] it was 36 nM; with MMP 2, more than 2000 nM. Also, the Ki in [4] was more than 3000 nM; in the assay with MMP 1 it was more than 2000 nM; with MMP 13, more than 2000 nM; with MMP 14, more than 2000 nM; in [5], more than 10000 nM; in assay [6] it was 17 nM. The same substance yielded a Ki in assay [8] of 1000 nM. In assay [7], the inhibition of CD23 shedding in Ramos cells (soluble CD23 ELISA) is 30%. The same substance had an inhibition of CD23 shedding in U937 cells (soluble CD23 ELISA) in assay [7] of 30%.
For “Pro ADAM 17 (mouse) (from UniProt Q9Z0F8 18-214)”, in assay [9], the prodomain inhibition of enzyme activity (percent) turned out to be 0%.
